Results published in publication PMC7533328, “Sulfane sulfur‐activated actinorhodin production and sporulation is maintained by a natural gene circuit in Streptomyces coelicolor”.

Tests used:
[1] = biological target: T1, ScCsoR (Streptomyces coelicolor M145) (UniProt Q9RD62); assay: EMSA; conditions: 20 mM Tris-HCl pH 8.0, 2 mM EDTA, 20 mM KCl, 0.5 mM DTT (or 1-3 mM HSnH), 4% Ficoll-400, 1 nM probe, 25 C, 15 min
T1 sequence: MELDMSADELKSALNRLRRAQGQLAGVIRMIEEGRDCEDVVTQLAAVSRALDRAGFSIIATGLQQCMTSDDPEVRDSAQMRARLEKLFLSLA

[2] = test system: T2, ScCsoR-C37S C38S (Streptomyces coelicolor M145), ORF:9a82776c; assay: EMSA; conditions: 20 mM Tris-HCl pH 8.0, 2 mM EDTA, 20 mM KCl, 0.5 mM DTT (or 1-3 mM HSnH), 4% Ficoll-400, 1 nM probe, 25 C, 15 min
T2 sequence: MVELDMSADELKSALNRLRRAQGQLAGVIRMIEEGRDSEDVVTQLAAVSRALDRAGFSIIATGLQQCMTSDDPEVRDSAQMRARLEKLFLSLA

[3] = test system: T3, ScCsoR-C66S C67S (Streptomyces coelicolor M145), ORF:9a82776c; assay: EMSA; conditions: 20 mM Tris-HCl pH 8.0, 2 mM EDTA, 20 mM KCl, 0.5 mM DTT (or 1-3 mM HSnH), 4% Ficoll-400, 1 nM probe, 25 C, 15 min
T3 sequence: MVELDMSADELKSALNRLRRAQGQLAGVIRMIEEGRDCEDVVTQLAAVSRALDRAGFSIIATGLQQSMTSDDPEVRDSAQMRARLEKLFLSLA

[4] = test system: T4, ScCsoR-C37S-C66S C38S;C67S (Streptomyces coelicolor M145), ORF:9a82776c; assay: EMSA; conditions: 20 mM Tris-HCl pH 8.0, 2 mM EDTA, 20 mM KCl, 0.5 mM DTT (or 1-3 mM HSnH), 4% Ficoll-400, 1 nM probe, 25 C, 15 min
T4 sequence: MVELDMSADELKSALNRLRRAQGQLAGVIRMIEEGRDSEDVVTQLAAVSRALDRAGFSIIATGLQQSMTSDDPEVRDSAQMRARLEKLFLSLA

ScCsoR [5] = biological target: T5, ScCsoR (Streptomyces coelicolor M145, UniProt Q9RD62 1-92); assay: competition EMSA; 50-fold excess over 79-bp probe; 20 mM Tris-HCl pH 8.0, 2 mM EDTA, 20 mM KCl, 0.5 mM DTT (or 1-3 mM HSnH), 4% Ficoll-400, 1 nM probe, 25 C, 15 min; conditions: protein: recombinant; tags: N-terminal His-tag (pET15b); chain copies: 4; blunt
T5 sequence: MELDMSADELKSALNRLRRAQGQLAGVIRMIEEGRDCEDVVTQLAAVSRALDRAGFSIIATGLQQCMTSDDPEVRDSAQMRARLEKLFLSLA

ScCsoR [6] = biological target: T5, ScCsoR; assay: EMSA; DTT; also with 50-fold competitor DNA; 20 mM Tris-HCl pH 8.0, 2 mM EDTA, 20 mM KCl, 0.5 mM DTT (or 1-3 mM HSnH), 4% Ficoll-400, 1 nM probe, 25 C, 15 min; conditions: protein: recombinant; tags: N-terminal His-tag (pET15b); chain copies: 4; label: 5'-biotin on strand 1; blunt

In the case of “TCTGCTCACGCCGCCCCCGCGCCGTCGCGGGCCGAGTGCGCCGCCGCTGCGCGCCTGTGCCGCGAGACCCGGGCAACTCCGGTGTACGACGCCGAAGTTGGGGTAC (double strand) [Scpdo promoter f1]”, the binding [1] is reported as “no binding”.

“ACGGCGCGGGGGCGGCGTGAGCAGACGACGAGCACACCCTCTCAATACCCCCCTGGGTATATCTGTTACGGTGGCCGGAAGAGATACCCCAGGGGGTAATTCCGGAAGGA (double strand) [Scpdo promoter f2]” was tested, and the binding [1] was “binds”.

For “GCCAGATAGCTGCGGTTGCCCAGTGACTCGGTCTCCAGGACGTCGACAAAGAACACGGCACGCTCTCCTTCCGGAATTACCCCCTGGGGTATCTCTTCCGGCCACCGTAACAGATATACCCAGGGGGGTATTGAGAGGGTGTGCTCGTCGTCTGCTCACGCCGCCCCCGCGCCGTCGCGGGCCGAGTGCGCCGCCGCTGCGCGCCTGTGCCGCGAGACCCGGGCAACTCCGGTGTACGACGCCGAAGTTGGGGTAC (double strand) [Scpdo promoter 256 bp]”, the binding [1] was “binds”, the binding [2] was “binds” and the binding [3] was “binds”. For the same molecule, the binding [4] was “binds”.

“AGGACGTCGACAAAGAACACGGCACGCTCTCCTTCCGGAATTACCCCCTGGGGTATCTCTTCCGGCCACCGTAACAGATATACCCAGGGGGGTATTGAGAGGGTGTGC (double strand) [Scpdo promoter f3]” was tested, and the binding [1] was “binds”.

In the case of “GCCAGATAGCTGCGGTTGCCCAGTGACTCGGTCTCCAGGACGTCGACAAAGAACACGGCACGCTCTCCTTCCGGAATTACCCCCTGGGGTATCTCTTCCGGCCACCGT (double strand) [Scpdo promoter f4]”, the binding [1] is reported as “no binding”.

In the case of “CGACGACGGTGAACTCGGCCAGGCGGGCCGCCGCCTGCCCGGTGGTCAGTGCGGTGGCGGTTGCTGCGGGGGTGTTCACGGAGCGAGACCTTTCTCGTTGTTCGTCCCCCCGCGCGGTAGGATACCCGCGGGGGTATGTGGGGTTCGGTGAGGTATCGGGTGGAGGAGAGGGAGAAGCGTGGAGCTCGACATGTCGGCCGACGAACTGAAGTCGGCGCTGAACCGGCTGCGGCGCGCCCAGGGGCAGCTCGCGGGAGTCAT (double strand) [SccsoR-Scrhod intergenic region 261 bp]”, the binding [1] is reported as “binds”.

For “CGGTGACCTTCTCCGCCCCGTGTTCGGCGGCGAGGCGCACCGCGGCCTCGGCCAGAGCGGCACGTGTGGCCCGCTTCTTCCGCTCCCGCAGACCGCCCCCCGCGGCACCCTTCTCCGACATAAGTTGCATGGTATGCAAAGATGCATGACATGCAAAATTGGCGGGCGCCGACCCCGGAAGGGGATCGGCGCCCGCCGTCGTCGGTGCGGCTCAGGCGGCCAGTCGGGCCAGCGTCTCCTCG (double strand) [sco0622 promoter 242 bp]”, the binding [1] was “no binding”.

B1: hrdB 79-bp competitor DNA (dsDNA)
DNA 1: CATTCCCAAGCCGGTGGTCGGCCCCTGTCCGCCGTGGACGGGGCCGGAAGCCGTTTTTCAACGTTCCGAGAGGTTGTTC
DNA 2: GAACAACCTCTCGGAACGTTGAAAAACGGCTTCCGGCCCCGTCCACGGCGGACAGGGGCCGACCACCGGCTTGGGAATG
B1: no binding (ScCsoR [5]).

B2: Scpdo 79-bp probe (bsI, bsII) (dsDNA)
DNA 1: CCTGGGTATATCTGTTACGGTGGCCGGAAGAGATACCCCAGGGGGTAATTCCGGAAGGAGAGCGTGCCGTGTTCTTTGT
DNA 2: ACAAAGAACACGGCACGCTCTCCTTCCGGAATTACCCCCTGGGGTATCTCTTCCGGCCACCGTAACAGATATACCCAGG
B2: binds (ScCsoR [6]).
